This note sets out measurements from patent publication US20060198851A1 (Janssen / Centocor, published 2006).

Test [1] has as its target T1, synthetic Aβ1-42 (aggregated in the ELISAs) (human, UniProt P05067 672-713).
T1 construct: range 672-713; also called aggregated Aβ1-42; aggregated synthetic Aβ1-42
The test is described as follows: Aβ 1-42 binding ELISA.

Test [2] deals with T2, biotinylated DAE peptide (immobilized Aβ peptide) (human, UniProt P05067 672-681, limits assumed, also: biotinylated, site not given here).
T2 construct: domain: Aβ peptide (bio-DAE peptide; bio-DAE10); Immobilized on streptavidin biosensor chips for BIAcore; also called bio-DAE peptide; bio-DAE10
T2 peptide (looked up): DAEFRHDSGY
Description: BIAcore (SPR), biotinylated DAE peptide on streptavidin chip, antibody in solution; bivalent model, global analysis.

Test [3] deals with T1, synthetic Aβ1-42 (aggregated in the …). Description: competitive Aβ1-42 ELISA, competitor biotin conjugated m12A11Cγ2a (FIG. 12).
Test [4] has the same target. Description: competitive Aβ1-42 ELISA; competitor: biotin conjugated m12A11Cγ2a at a fixed concentration.

No end group written: not given here.

B1: humanized 3D6 (antibody, V domains shown)
VH: EVQLVESGGGLVQPGGSLRLSCAGSGFTFSNYGMSWVRQAPGKGLEWVASIRSGGGRTYYSDNVKGRFTISRENAKNSLYLQMNSLRAEDTAVYYCVRYDHYSGSSDYWGQGTLVTVSS
VL: DVVMTQSPLSLPVTLGQPASISCKSSQSLLDSDGKTYLNWLQQRPGQSPRRLIYLVSKLDSGVPDRFSGSGSGTDFTLKISRVEAEDVGVYYCWQGTHFPRTFGGGTKVEIKR
Turning to B1, the “EC50 (read off the curve)” value in test [1] was about 0.04 µg/mL.

B2: humanized 12A11 version 1 (antibody, V domains shown)
VH: QVQLVESGGGVVQPGRSLRLSCAFSGFSLSTSGMSVGWIRQAPGKGLEWLAHIWWDDDKYYNPSLKSRLTISKDTSKNTVYLQMNSLRAEDTAVYYCARRTTTADYFAYWGQGTTVTVSS
VL: DVVMTQSPLSLPVTPGEPASISCRSSQSIVHSNGNTYLEWYLQKPGQSPQLLIYKVSNRFSGVPDRFSGSGSGTDFTLKISRVEAEDVGVYYCFQSSHVPLTFGQGTKLEIK
notes: Variable domains only; also called h12A11v1; 12A11v1
On to B2, for which, in test [2], the Ka is 4.29e+07 M⁻¹, the Kd was 23.3 nM, the off-rate constant (koff) was 0.00343 s⁻¹ and the kon worked out at 147000 M⁻¹ s⁻¹. The “IC50 fold against murine and chimeric 12A11” value in test [3] is at most 2 fold. In addition, the “IC50 (read off the curve)” value in test [4] is about 1 µg/mL.
